From publication PMC8982406

T1: ZC4H2 (wild type; mapping and mutation co-IPs), Q9NQZ6
T1 chain: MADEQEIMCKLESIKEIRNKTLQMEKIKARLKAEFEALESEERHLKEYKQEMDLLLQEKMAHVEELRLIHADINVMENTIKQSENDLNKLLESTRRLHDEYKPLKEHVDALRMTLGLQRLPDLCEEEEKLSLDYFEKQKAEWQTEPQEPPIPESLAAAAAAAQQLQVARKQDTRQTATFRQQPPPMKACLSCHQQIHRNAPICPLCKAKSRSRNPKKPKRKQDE


Molecular target: T1, ZC4H2 (wild type; mapping and mutation …)
Experiment: co-IP (IP: FLAG, IB: myc), blot quantification
Settings: chain shown with the change; hRLIM-myc + ZC4H2-FLAG, MG132 +, HEK293 cells; parent: 1.00

Row | ratio to parent | Binder
1 | 0.65 | full-length RLIM protein (wild type; mapping and mutation co-IPs), Q9NVW2 R599C (protein) MENSDSNDKGSGDQSAAQRRSQMDRLDREEAFYQFVNNLSEEDYRLMRDNNLLGTPGESTEEELLRRLQQIKEGPPPQNSDENRGGDSSDDVSNGDSIIDWLNSVRQTGNTTRSGQRGNQSWRAVSRTNPNSGDFRFSLEINVNRNNGSQNSENENEPSARRSSGENVENNSQRQVENPRSESTSARPSRSERNSTEALTEVPPTRGQRRARSRSPDHRRTRARAERSRSPLHPMSEIPRRSHHSISSQTFEHPLVNETEGSSRTRHHVTLRQQISGPELLSRGLFAASGTRNASQGAGSSDTAASGESTGSGQRPPTIVLDLQVRRVRPGEYRQRDSIASRTRSRSQTPNNTVTYESERGGFRRTFSRSERAGVRTYVSTIRIPIRRILNTGLSETTSVAIQTMLRQIMTGFGELSYFMYSDSDSEPTGSVSNRNMERAESRSGRGGSGGGSSSGSSSSSSSSSSSSSSSSSSSSPSSSSGGESSETSSDLFEGSNEGSSSSGSSGARREGRHRAPVTFDESGSLPFLSLAQFFLLNEDDDDQPRGLTKEQIDNLAMRSFGENDALKTCSVCITEYTEGNKLRKLPCSHEYHVHCIDCWLSENSTCPICRRAVLASGNRESVV
2 | 0.23 | full-length RLIM protein (wild type; mapping and mutation co-IPs), Q9NVW2 D598N (protein) MENSDSNDKGSGDQSAAQRRSQMDRLDREEAFYQFVNNLSEEDYRLMRDNNLLGTPGESTEEELLRRLQQIKEGPPPQNSDENRGGDSSDDVSNGDSIIDWLNSVRQTGNTTRSGQRGNQSWRAVSRTNPNSGDFRFSLEINVNRNNGSQNSENENEPSARRSSGENVENNSQRQVENPRSESTSARPSRSERNSTEALTEVPPTRGQRRARSRSPDHRRTRARAERSRSPLHPMSEIPRRSHHSISSQTFEHPLVNETEGSSRTRHHVTLRQQISGPELLSRGLFAASGTRNASQGAGSSDTAASGESTGSGQRPPTIVLDLQVRRVRPGEYRQRDSIASRTRSRSQTPNNTVTYESERGGFRRTFSRSERAGVRTYVSTIRIPIRRILNTGLSETTSVAIQTMLRQIMTGFGELSYFMYSDSDSEPTGSVSNRNMERAESRSGRGGSGGGSSSGSSSSSSSSSSSSSSSSSSSSPSSSSGGESSETSSDLFEGSNEGSSSSGSSGARREGRHRAPVTFDESGSLPFLSLAQFFLLNEDDDDQPRGLTKEQIDNLAMRSFGENDALKTCSVCITEYTEGNKLRKLPCSHEYHVHCINRWLSENSTCPICRRAVLASGNRESVV
3 | 1.02 | full-length RLIM protein (wild type; mapping and mutation co-IPs), Q9NVW2 R365C (protein) MENSDSNDKGSGDQSAAQRRSQMDRLDREEAFYQFVNNLSEEDYRLMRDNNLLGTPGESTEEELLRRLQQIKEGPPPQNSDENRGGDSSDDVSNGDSIIDWLNSVRQTGNTTRSGQRGNQSWRAVSRTNPNSGDFRFSLEINVNRNNGSQNSENENEPSARRSSGENVENNSQRQVENPRSESTSARPSRSERNSTEALTEVPPTRGQRRARSRSPDHRRTRARAERSRSPLHPMSEIPRRSHHSISSQTFEHPLVNETEGSSRTRHHVTLRQQISGPELLSRGLFAASGTRNASQGAGSSDTAASGESTGSGQRPPTIVLDLQVRRVRPGEYRQRDSIASRTRSRSQTPNNTVTYESERGGFRCTFSRSERAGVRTYVSTIRIPIRRILNTGLSETTSVAIQTMLRQIMTGFGELSYFMYSDSDSEPTGSVSNRNMERAESRSGRGGSGGGSSSGSSSSSSSSSSSSSSSSSSSSPSSSSGGESSETSSDLFEGSNEGSSSSGSSGARREGRHRAPVTFDESGSLPFLSLAQFFLLNEDDDDQPRGLTKEQIDNLAMRSFGENDALKTCSVCITEYTEGNKLRKLPCSHEYHVHCIDRWLSENSTCPICRRAVLASGNRESVV
4 | 0.95 | full-length RLIM protein (wild type; mapping and mutation co-IPs), Q9NVW2 P77L (protein) MENSDSNDKGSGDQSAAQRRSQMDRLDREEAFYQFVNNLSEEDYRLMRDNNLLGTPGESTEEELLRRLQQIKEGPPLQNSDENRGGDSSDDVSNGDSIIDWLNSVRQTGNTTRSGQRGNQSWRAVSRTNPNSGDFRFSLEINVNRNNGSQNSENENEPSARRSSGENVENNSQRQVENPRSESTSARPSRSERNSTEALTEVPPTRGQRRARSRSPDHRRTRARAERSRSPLHPMSEIPRRSHHSISSQTFEHPLVNETEGSSRTRHHVTLRQQISGPELLSRGLFAASGTRNASQGAGSSDTAASGESTGSGQRPPTIVLDLQVRRVRPGEYRQRDSIASRTRSRSQTPNNTVTYESERGGFRRTFSRSERAGVRTYVSTIRIPIRRILNTGLSETTSVAIQTMLRQIMTGFGELSYFMYSDSDSEPTGSVSNRNMERAESRSGRGGSGGGSSSGSSSSSSSSSSSSSSSSSSSSPSSSSGGESSETSSDLFEGSNEGSSSSGSSGARREGRHRAPVTFDESGSLPFLSLAQFFLLNEDDDDQPRGLTKEQIDNLAMRSFGENDALKTCSVCITEYTEGNKLRKLPCSHEYHVHCIDRWLSENSTCPICRRAVLASGNRESVV
5 | 0.17 | full-length RLIM protein (wild type; mapping and mutation co-IPs), Q9NVW2 R611C (protein) MENSDSNDKGSGDQSAAQRRSQMDRLDREEAFYQFVNNLSEEDYRLMRDNNLLGTPGESTEEELLRRLQQIKEGPPPQNSDENRGGDSSDDVSNGDSIIDWLNSVRQTGNTTRSGQRGNQSWRAVSRTNPNSGDFRFSLEINVNRNNGSQNSENENEPSARRSSGENVENNSQRQVENPRSESTSARPSRSERNSTEALTEVPPTRGQRRARSRSPDHRRTRARAERSRSPLHPMSEIPRRSHHSISSQTFEHPLVNETEGSSRTRHHVTLRQQISGPELLSRGLFAASGTRNASQGAGSSDTAASGESTGSGQRPPTIVLDLQVRRVRPGEYRQRDSIASRTRSRSQTPNNTVTYESERGGFRRTFSRSERAGVRTYVSTIRIPIRRILNTGLSETTSVAIQTMLRQIMTGFGELSYFMYSDSDSEPTGSVSNRNMERAESRSGRGGSGGGSSSGSSSSSSSSSSSSSSSSSSSSPSSSSGGESSETSSDLFEGSNEGSSSSGSSGARREGRHRAPVTFDESGSLPFLSLAQFFLLNEDDDDQPRGLTKEQIDNLAMRSFGENDALKTCSVCITEYTEGNKLRKLPCSHEYHVHCIDRWLSENSTCPICCRAVLASGNRESVV
6 | 0.72 | full-length RLIM protein (wild type; mapping and mutation co-IPs), Q9NVW2 P587R (protein) MENSDSNDKGSGDQSAAQRRSQMDRLDREEAFYQFVNNLSEEDYRLMRDNNLLGTPGESTEEELLRRLQQIKEGPPPQNSDENRGGDSSDDVSNGDSIIDWLNSVRQTGNTTRSGQRGNQSWRAVSRTNPNSGDFRFSLEINVNRNNGSQNSENENEPSARRSSGENVENNSQRQVENPRSESTSARPSRSERNSTEALTEVPPTRGQRRARSRSPDHRRTRARAERSRSPLHPMSEIPRRSHHSISSQTFEHPLVNETEGSSRTRHHVTLRQQISGPELLSRGLFAASGTRNASQGAGSSDTAASGESTGSGQRPPTIVLDLQVRRVRPGEYRQRDSIASRTRSRSQTPNNTVTYESERGGFRRTFSRSERAGVRTYVSTIRIPIRRILNTGLSETTSVAIQTMLRQIMTGFGELSYFMYSDSDSEPTGSVSNRNMERAESRSGRGGSGGGSSSGSSSSSSSSSSSSSSSSSSSSPSSSSGGESSETSSDLFEGSNEGSSSSGSSGARREGRHRAPVTFDESGSLPFLSLAQFFLLNEDDDDQPRGLTKEQIDNLAMRSFGENDALKTCSVCITEYTEGNKLRKLRCSHEYHVHCIDRWLSENSTCPICRRAVLASGNRESVV
7 | 0.91 | full-length RLIM protein (wild type; mapping and mutation co-IPs), Q9NVW2 Y356C (protein) MENSDSNDKGSGDQSAAQRRSQMDRLDREEAFYQFVNNLSEEDYRLMRDNNLLGTPGESTEEELLRRLQQIKEGPPPQNSDENRGGDSSDDVSNGDSIIDWLNSVRQTGNTTRSGQRGNQSWRAVSRTNPNSGDFRFSLEINVNRNNGSQNSENENEPSARRSSGENVENNSQRQVENPRSESTSARPSRSERNSTEALTEVPPTRGQRRARSRSPDHRRTRARAERSRSPLHPMSEIPRRSHHSISSQTFEHPLVNETEGSSRTRHHVTLRQQISGPELLSRGLFAASGTRNASQGAGSSDTAASGESTGSGQRPPTIVLDLQVRRVRPGEYRQRDSIASRTRSRSQTPNNTVTCESERGGFRRTFSRSERAGVRTYVSTIRIPIRRILNTGLSETTSVAIQTMLRQIMTGFGELSYFMYSDSDSEPTGSVSNRNMERAESRSGRGGSGGGSSSGSSSSSSSSSSSSSSSSSSSSPSSSSGGESSETSSDLFEGSNEGSSSSGSSGARREGRHRAPVTFDESGSLPFLSLAQFFLLNEDDDDQPRGLTKEQIDNLAMRSFGENDALKTCSVCITEYTEGNKLRKLPCSHEYHVHCIDRWLSENSTCPICRRAVLASGNRESVV
8 | 0.18 | full-length RLIM protein (wild type; mapping and mutation co-IPs), Q9NVW2 R387C (protein) MENSDSNDKGSGDQSAAQRRSQMDRLDREEAFYQFVNNLSEEDYRLMRDNNLLGTPGESTEEELLRRLQQIKEGPPPQNSDENRGGDSSDDVSNGDSIIDWLNSVRQTGNTTRSGQRGNQSWRAVSRTNPNSGDFRFSLEINVNRNNGSQNSENENEPSARRSSGENVENNSQRQVENPRSESTSARPSRSERNSTEALTEVPPTRGQRRARSRSPDHRRTRARAERSRSPLHPMSEIPRRSHHSISSQTFEHPLVNETEGSSRTRHHVTLRQQISGPELLSRGLFAASGTRNASQGAGSSDTAASGESTGSGQRPPTIVLDLQVRRVRPGEYRQRDSIASRTRSRSQTPNNTVTYESERGGFRRTFSRSERAGVRTYVSTIRIPICRILNTGLSETTSVAIQTMLRQIMTGFGELSYFMYSDSDSEPTGSVSNRNMERAESRSGRGGSGGGSSSGSSSSSSSSSSSSSSSSSSSSPSSSSGGESSETSSDLFEGSNEGSSSSGSSGARREGRHRAPVTFDESGSLPFLSLAQFFLLNEDDDDQPRGLTKEQIDNLAMRSFGENDALKTCSVCITEYTEGNKLRKLPCSHEYHVHCIDRWLSENSTCPICRRAVLASGNRESVV
